According to paper PMC7337906:

Target: T1, Tof1(613-728) minimal;Csm3(48-157) internal_change (Chaetomium thermophilum;Chaetomium thermophilum) (UniProt G0S825+Q2H3R6)
T1 sequence 1: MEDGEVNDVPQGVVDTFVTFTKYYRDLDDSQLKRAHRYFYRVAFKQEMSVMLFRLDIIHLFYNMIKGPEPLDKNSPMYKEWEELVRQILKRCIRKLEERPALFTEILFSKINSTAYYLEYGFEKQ
T1 sequence 2: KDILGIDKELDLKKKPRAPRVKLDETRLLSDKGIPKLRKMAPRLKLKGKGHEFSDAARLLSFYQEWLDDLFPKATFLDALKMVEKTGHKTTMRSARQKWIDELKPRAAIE
Assay: EMSA
Details: HBS-200 (20 mM HEPES pH 7.5, 200 mM NaCl, 1 mM TCEP) + 10% glycerol, 50 nM DNA, 30 min on ice; 6% polyacrylamide tris-glycine gel

“GTAGTTTGTACTGGTGACGA (double strand) [dsDNA 20 bp]” was tested, and the binding signal (fold weaker than P1+P2) was 2.
